In the supplement of paper PMC12764529:
± gives the half width of the 95% confidence interval.

How the values were obtained:
[1] = folding stability dG unfold from chymotrypsin proteolysis; higher = more stable
Method in brief: (§1)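 Only designs with AlphaFold2 dimer inter-PAE above 15 were retained; each was a mini-protein under 80 residues with no cysteine, in a PA-tagged cDNA display construct. After digestion with trypsin and chymotrypsin and sequencing, K50 was inferred by Bayesian fitting of counts, and unfolding free energy was derived per protease or combined against a sequence-predicted unfolded-state K50 and a shared folded-state K50.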

[2] = folding stability dG unfold (combined trypsin and chymotrypsin); higher = more stable
Method in brief: as §1

[3] = folding stability dG unfold from trypsin proteolysis; higher = more stable
Method in brief: as §1

| Sequence | folding stability dG unfold [1] [kcal/mol] | folding stability dG unfold [2] [kcal/mol] | folding stability dG unfold [3] [kcal/mol] |
| --- | --- | --- | --- |
| SAGGSAGGSAGGIKITPDIRELLRQQGKPFSEEEIQGIAKYIAKHFKEKGFEDVTIRIPWSAGGSAGGSAGG [r7_512_TrROS] | 0.783 ± 0.2 | 0.774 ± 0.14 | 0.471 ± 0.17 |
| SAGGSAGGSAGGIRIEFPGMKFEIDEFDPPNGVITLRFPENGQELQIKFDSDGEITKITWSAGGSAGGSAGG [r7_553_TrROS] | 1.94 ± 0.14 | 2.25 ± 0.28 | 2.05 ± 0.2 |
| SAGGSAGGSAGGIWITMRPDNPDEFIDALRKKGKIRIVEVEPKNGNVIMRVTLDGQPLTSAGGSAGGSAGGS [r10_695_TrROS] | 0.53 ± 0.11 | 0.368 ± 0.088 | 0.0442 ± 0.14 |
| SAGGSAGGSAGGKATLGEDGFLVIEREVELPDGPYRPETLVIPLPELTPEEVERLLETESAGGSAGGSAGGS [r10_1096_TrMRF] | 0.919 ± 0.044 | 1.05 ± 0.096 | 1.24 ± 0.13 |
| SAGGSAGGSAGGKDGYYKAIIELPGGEKREIVFKYEDFEEALKSLGIPLENVKIVKIEEGSAGGSAGGSAGG [r7_211_TrMRF] | 3.49 ± 0.11 | 3.48 ± 0.18 | 3.3 ± 0.2 |
| SAGGSAGGSAGGKEYKLVKVKVKVEITLPKGSELLKKLGLSEEDVKFEFELEVVVLVKPSAGGSAGGSAGGS [r10_82_TrROS_Hall] | 3.93 ± 0.074 | 3.68 ± 0.23 | 2.82 ± 0.21 |
| SAGGSAGGSAGGKIEIKTFPDGYVLAKIEFPDEDKALVILAKVKPNPGKVLEAIIRPADSAGGSAGGSAGGS [r10_613_TrMRF] | 1.51 ± 0.062 | 1.38 ± 0.097 | 1.2 ± 0.025 |
| SAGGSAGGSAGGKIENWKITKVETKLHPNGFPYLVIELSNEKKKIRVLIYPNGELKAFEESAGGSAGGSAGG [r7_675_TrMRF] | 4.07 ± 0.21 | 3.82 ± 0.31 | 2.8 ± 0.42 |
| SAGGSAGGSAGGKIIHPDLKKPLDVLEKFELIIGGKPYLFFLSRGEGELRLLVIPAGKESAGGSAGGSAGGS [r10_517_TrMRF] | 2.53 ± 0.055 | 2.15 ± 0.048 | 1.54 ± 0.021 |
| SAGGSAGGSAGGKIYYLDKDLFVIDLPDPKTGKPIKIAIGGDPNRPDEILKLAKELAESSAGGSAGGSAGGS [r10_379_TrMRF] | -0.398 ± 0.26 | -0.0301 ± 0.2 | 0.0383 ± 0.039 |
| SAGGSAGGSAGGKKIEIEFTVKILREPEPGELVPYEVKGKLEINIDPDGNLKIELKFEPGSAGGSAGGSAGG [r11_607_TrMRF] | 3.26 ± 0.073 | 3.06 ± 0.15 | 2.81 ± 0.11 |
| SAGGSAGGSAGGKKIIKVPLKNAEKIKKELKKKYKIKKVKIEKNKDGSKYIYIEVEKPKSAGGSAGGSAGGS [r10_1219_TrROS_Hall] | 1.69 ± 0.16 | 1.5 ± 0.23 | 0.939 ± 0.071 |
| SAGGSAGGSAGGKKIKIKINSPGNAEEVKKLLEPFGLEVDSIKENKNNPNLIIVEVNVESAGGSAGGSAGGS [r10_104_TrMRF] | 0.563 ± 0.031 | 0.242 ± 0.11 | -0.276 ± 0.11 |
| SAGGSAGGSAGGKKIRFYFPNGNPVELTEILDVDPEDKWARIDVEHNGKKHKHPMPADDLSAGGSAGGSAGG [r7_236_TrROS] | -1.19 ± 0.39 | < -1 | -1.36 ± 0.68 |
| SAGGSAGGSAGGKKIRIVVPKENLEKIEELAKKLGPDVKIVKVEYFKETDYVVVEVEVKSAGGSAGGSAGGS [r10_23_TrROS_Hall] | 1.98 ± 0.075 | 2.11 ± 0.086 | 2.16 ± 0.06 |
| SAGGSAGGSAGGKKKKVIEIELKPGEKLTLEQIKEIAKKLNVKKVKVEKVDGKLKIVVESAGGSAGGSAGGS [r10_642_TrROS_Hall] | 0.892 ± 0.065 | 0.815 ± 0.16 | 0.502 ± 0.057 |
| SAGGSAGGSAGGKKPKVKVIKLTLTVTKLTEKDGKLTLEKKTITLTAVIDPETGKIHLLSAGGSAGGSAGGS [r10_533_TrROS_Hall] | 3.5 ± 0.089 | 3.5 ± 0.16 | 3.2 ± 0.14 |
| SAGGSAGGSAGGKKPVKITEIHRNPGPNWIRIRIPGNGRPIPIPVPPGKKLTLEDALDFSAGGSAGGSAGGS [r10_844_TrROS] | -0.0211 ± 0.29 | -0.304 ± 0.19 | -0.648 ± 0.38 |
| SAGGSAGGSAGGKKTITVPVKIEEVDGKFRITLPDGKVIEFPPGAKVEEKDGLLTIELESAGGSAGGSAGGS [r10_305_TrROS_Hall] | 1.13 ± 0.078 | 1.14 ± 0.11 | 0.932 ± 0.025 |
| SAGGSAGGSAGGKKTIVIEINGKKYTITRIEFDKDTKKITIEIEFNGKKLKIEIELPKNLSAGGSAGGSAGG [r7_477_TrROS_Hall] | 3.31 ± 0.16 | 3.11 ± 0.27 | 2.17 ± 0.078 |
| SAGGSAGGSAGGKKTYVKKIVTEKKKVKLFFYDKKTGELLEEKEVEVIKTKIYVTKPDEFSAGGSAGGSAGG [r7_573_TrMRF] | 0.884 ± 0.31 | 0.868 ± 0.26 | 0.479 ± 0.13 |

| Sequence | folding stability dG unfold [1] [kcal/mol] | folding stability dG unfold [2] [kcal/mol] | folding stability dG unfold [3] [kcal/mol] |
| --- | --- | --- | --- |
| SAGGSAGGSAGGKKVILIRGLTPEEIEALAKELEELFPDLKVTIERLPGEEGTLLITVDSAGGSAGGSAGGS [r10_852_TrROS_Hall] | 1.91 ± 0.1 | 2.38 ± 0.14 | 2.92 ± 0.17 |
| SAGGSAGGSAGGKKVKVIKVSVTYDPKTKKLTIKVEKTGKTYTIPLKEIELVNGYLKIKSAGGSAGGSAGGS [r10_942_TrROS_Hall] | 2.45 ± 0.11 | 2.21 ± 0.34 | 1.78 ± 0.11 |
| SAGGSAGGSAGGKKVKVLTLTIELEVKDSNGKKYKVKATVTLIYDEKTKKLYLNISIEPSAGGSAGGSAGGS [r10_795_TrROS_Hall] | 5.05 ± 0.19 | 4.85 ± 0.31 | 3.95 ± 0.39 |
| SAGGSAGGSAGGKKVTITITIKVKEGEEITINGKKITVKPGETITITITITVPPKKKKKSAGGSAGGSAGGS [r10_949_TrROS_Hall] | 2.38 ± 0.31 | 2.19 ± 0.41 | 1.57 ± 0.13 |
| SAGGSAGGSAGGKKVYKVPSLEEALELAKKNKGKTVEIEVDGKKYKFNKNGKIVEIEPVKSAGGSAGGSAGG [r7_532_TrROS_Hall] | 2.38 ± 0.075 | 2.14 ± 0.12 | 1.36 ± 0.084 |
| SAGGSAGGSAGGKLILKVKVEVVSVKVEPLPGVPGEVKVEVEVKVEVELIEVSEEELKSSAGGSAGGSAGGS [r10_654_TrROS_Hall] | 2.34 ± 0.098 | 2.19 ± 0.18 | 1.88 ± 0.26 |
| SAGGSAGGSAGGKLIVLPVTSDEVFDFGDGPIPVPAGSIVVLEISPDGAKALVFSPEDLSAGGSAGGSAGGS [r10_353_TrMRF] | 0.886 ± 0.065 | 1 ± 0.087 | 1.12 ± 0.021 |
| SAGGSAGGSAGGKMKPVTIYIKNKDGSTAKLKVINGKVEITFPNGEKKTISAKDLKIYKSAGGSAGGSAGGS [r10_1176_TrROS_Hall] | 1.49 ± 0.13 | 1.22 ± 0.17 | 0.631 ± 0.086 |
| SAGGSAGGSAGGKMLLIKITTKDGREFTLEISEEEAKKLAEELKKKFPNQKIEVEIVPLKSAGGSAGGSAGG [r7_349_TrROS_Hall] | 3.16 ± 0.073 | 3.21 ± 0.14 | 3.21 ± 0.18 |
| SAGGSAGGSAGGKMRLYRFNLKTNKIEEVEAEPGEVIKITFPGKEIVLVVKDGKIELIPSAGGSAGGSAGGS [r10_817_TrROS_Hall] | 1.2 ± 0.22 | 0.884 ± 0.21 | 0.464 ± 0.13 |
| SAGGSAGGSAGGKMYLIKVKVDGEEKLIKVKSLEEAKKLLEEKGYKIESVEIFEVEEEEESAGGSAGGSAGG [r7_726_TrROS_Hall] | 4.07 ± 0.059 | 4.09 ± 0.073 | 4.14 ± 0.23 |
| SAGGSAGGSAGGKNKYYVRVKIKNPNGRTRKINFPFDDPDQIKEQAQKEGWKIDEVEPVSAGGSAGGSAGGS [r10_882_TrROS] | -0.064 ± 0.29 | -0.121 ± 0.18 | -0.319 ± 0.25 |
| SAGGSAGGSAGGKPGEKKRYRFPAPKFELVSKVKVRVKVLNEDTNELYEKEVEVFVLKLTSAGGSAGGSAGG [r7_64_TrROS_Hall] | 2.77 ± 0.16 | 2.14 ± 0.21 | 1.12 ± 0.045 |
| SAGGSAGGSAGGKPKLTLTLTLKRTVKNKNGKTTEKTLTLTLTFDSKEEAENALKELGFSAGGSAGGSAGGS [r10_1062_TrROS_Hall] | 2.92 ± 0.042 | 2.67 ± 0.099 | 2.18 ± 0.033 |
| SAGGSAGGSAGGKPLYLRITVKNKDGSEREIVVPLDTTIDDILAALPPNVTEVKIEVFPVSAGGSAGGSAGG [r7_288_TrROS_Hall] | 3.52 ± 0.13 | 3.52 ± 0.13 | 3.36 ± 0.11 |
| SAGGSAGGSAGGKPNEVRVANIPIYRRLENGGWELIRPLPIVVPVDASVDFVLDAFKKYSAGGSAGGSAGGS [r10_470_TrMRF] | 0.815 ± 0.076 | 0.658 ± 0.048 | 0.392 ± 0.041 |
| SAGGSAGGSAGGKPTITVTYDKENNTVTITFPDGSKIEITVPENATEEEVKKLVEELAKSAGGSAGGSAGGS [r10_33_TrROS_Hall] | 3.13 ± 0.11 | 2.97 ± 0.22 | 2.62 ± 0.18 |
| SAGGSAGGSAGGKTIRFKAKSPEEIAEKIKKGEEILTPDGKPVKITKVEPLPDGSVLITGSAGGSAGGSAGG [r11_48_TrMRF] | 0.588 ± 0.18 | 0.46 ± 0.081 | 0.0865 ± 0.17 |
| SAGGSAGGSAGGKTLTLEIEINGKLYKIEFSGDSIKITEIKVKPKPKKKEFFSEEELKKKSAGGSAGGSAGG [r7_748_TrROS_Hall] | 2.55 ± 0.13 | 1.87 ± 0.31 | 0.563 ± 0.089 |
| SAGGSAGGSAGGKTYKITVSSGDTYLTISIELPDGLVLTYKITPNSIEVEIKPLKDFNESAGGSAGGSAGGS [r10_1169_TrMRF] | 5.3 ± 0.2 | 5.51 ± 0.43 | 3.42 ± 0.19 |
